The results in this text go back to article doi:10.1101/2021.12.28.474321 (bioRxiv, 2021).

A word on the stoichiometry N: it is the number of molecules, sites or subunits per partner or assembly.

Series [1] has as its target FBA3 in soluble extracts of Chlamydomonas cultures (Chlamydomonas reinhardtii (endogenous in Chlamydomonas cultures)). Nature of the series: SEC.
The series “SEC” concerns the molecule itself. Nature of the series: SEC.

In series [1], “FBA3 in soluble extracts of Chlamydomonas cultures (enzyme)” returned a stoichiometry N of 4.

B1: recombinant fructose-1,6-bisphosphate aldolase 3 from Chlamydomonas reinhardtii (CrFBA3) (enzyme, UniProt Q42690 28-377, looked up)
chain: GKYDEELIKTAGTVASKGRGILAMDESNATCGKRLDSIGVENTEENRRAYRELLVTAPGLGQYISGAILFEETLYQSTASGKKFVDVMKEQNIVPGIKVDKGLVPLSNTNGESWCMGLDGLDKRCAEYYKAGARFAKWRSVVSIPHGPSIIAARDCAYGLARYAAIAQNAGLVPIVEPEVLLDGEHDIDRCLEVQEAIWAETFKYMADNKVMFEGILLKPAMVTPGADCKNKAGPAKVAEYTLKMLRRRVPPAVPGIMFLSGGQSELESTLNLNAMNQSPNPWHVSFSYARALQNTVLKTWQGKPENVQAAQAALLKRAKANSDAQQGKYDATTEGKEAAQGMYEKGYVY
Consider B1, for which the “stoichiometry N” value in “SEC” is 4.
